Measured values reported in article PMC3206016, “Putting into Practice Domain-Linear Motif Interaction Predictions for Exploration of Protein Networks” (PLoS ONE, 2011).
pKd: −log10 of the molar value. Read-outs that look alike come from different tables or passages of the source.

Tests used:
Assay in all cases: SPR
[1] = target: 16E6L/V (C-terminal peptide of HPV16 early protein E6 with L158V) (human papilloma virus 16)
[2] = target: 16E6L/V (C-terminal peptide of HPV16 early protein E6 with L158V) (human papilloma virus 16); remark: listed apart in the source
[3] = target: 16E6L/V (C-terminal peptide of HPV16 early protein E6 with L158V) (human papilloma virus 16); remark: listed apart in the source
[4] = target: 16E6L/V (C-terminal peptide of HPV16 early protein E6 with L158V) (human papilloma virus 16); remark: listed apart in the source

Sequence of MAGI1-3/6 (MBP fusion of the third of the six PDZ domains of MAGI1) (Q6RHR9 613-752): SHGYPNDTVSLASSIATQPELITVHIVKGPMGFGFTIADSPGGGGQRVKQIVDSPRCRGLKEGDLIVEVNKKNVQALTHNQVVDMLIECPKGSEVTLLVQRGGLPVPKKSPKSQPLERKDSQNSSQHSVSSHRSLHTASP
Sequence of MAGI1-2/6 (MBP fusion of the second of the six PDZ domains of MAGI1) (Q6RHR9 448-572): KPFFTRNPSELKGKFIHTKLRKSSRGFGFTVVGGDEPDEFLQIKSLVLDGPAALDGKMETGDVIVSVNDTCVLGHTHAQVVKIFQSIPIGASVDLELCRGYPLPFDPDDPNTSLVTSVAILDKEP
Sequence of SCRIB-3/4 (MBP fusion of the third of the four PDZ domains of SCRIB) (Q14160 997-1093): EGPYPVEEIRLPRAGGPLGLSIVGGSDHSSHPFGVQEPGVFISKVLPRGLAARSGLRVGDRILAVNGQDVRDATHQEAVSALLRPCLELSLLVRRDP
Sequence of SCRIB-34/4 (MBP fusion of the tandem of the third and fourth PDZ domains of SCRIB) (Q14160 997-1193): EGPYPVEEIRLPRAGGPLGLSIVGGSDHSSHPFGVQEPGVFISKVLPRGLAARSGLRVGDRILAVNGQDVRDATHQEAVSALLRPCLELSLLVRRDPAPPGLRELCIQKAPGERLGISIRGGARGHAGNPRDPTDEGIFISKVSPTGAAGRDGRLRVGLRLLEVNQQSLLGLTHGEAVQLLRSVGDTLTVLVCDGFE

## SCRIB-3/4 (MBP fusion of the third of the four PDZ domains of SCRIB) (from UniProt Q14160-1 997-1093) (domain or fragment)
[1]
  pKd: 4.39
[2]
  pKd: 4.74
[3]
  pKd: 4.49

## SCRIB-34/4 (MBP fusion of the tandem of the third and fourth PDZ domains of SCRIB) (from UniProt Q14160-1 997-1193) (domain or fragment)
[4]
  pKd: 5.40
[2]
  pKd: 5.52

## MAGI1-2/6 (MBP fusion of the second of the six PDZ domains of MAGI1) (from UniProt Q6RHR9-1 448-572) (domain or fragment)
[1]
  pKd: 4.74
[2]
  pKd: 5.70
[3]
  pKd: 6.00

## MAGI1-3/6 (MBP fusion of the third of the six PDZ domains of MAGI1) (from UniProt Q6RHR9-1 613-752) (domain or fragment)
[1]
  pKd: 4.12
[2]
  pKd: 4.16
[3]
  pKd: 3.69
